Results published in article PMC10314757.

How the values were obtained:
FcγRIIIb (CD16b) = FcγRIIIb (CD16b) (UniProt O75015); experiment: SPR; BIAcore X100; receptor (20 µg/mL) captured by anti-His-tag antibodies on a CM5 chip, each receptor on its own chip; charge variant as analyte, 2.5 µM to 40 µM, single-cycle; HBS-EP buffer (10 mM HEPES pH 7.4, 150 mM NaCl, 50 µM EDTA, 0.005% P20)
FcγRIIIa (CD16a) = FcγRIIIa (CD16a) (UniProt P08637); experiment: as above

Kd (FcγRIIIb (CD16b)) [µM]	koff (FcγRIIIb (CD16b)) [s⁻¹]	kon (FcγRIIIb (CD16b)) [M⁻¹ s⁻¹]	koff (FcγRIIIa (CD16a)) [s⁻¹]	kon (FcγRIIIa (CD16a)) [M⁻¹ s⁻¹]	Substance
14.3	0.82	106000			trastuzumab proposed biosimilar, acidic charge variants (acidic peak) (antibody)
			0.08	102000	trastuzumab proposed biosimilar, acidic charge variants (acidic peak) (antibody; other documents disagree on this pair)
	0.33	25600			trastuzumab proposed biosimilar, basic charge variants (basic peak) (antibody)
			0.05	31300	trastuzumab proposed biosimilar, basic charge variants (basic peak) (antibody; other documents disagree on this pair)
	0.34	15400			trastuzumab proposed biosimilar, main charge variant (main peak) (antibody)
			0.09	36600	trastuzumab proposed biosimilar, main charge variant (main peak) (antibody; other documents disagree on this pair)
